# Measurements taken from patent US6887705B1, “Tyrosine phosphorylated cleavage furrow-associated proteins (PSTPIPs)” (Genentech, Inc., priority 1997, dated 2005).
# Key:
# CHO cells = assay: Confocal microscopy of PST PIP forms expressed in CHO cells; format: cell-based, Chinese hamster; conditions: transfected CHO cells
# Method: Confocal microscopy was performed as previously described (Spencer et al, (1997), supra). Briefly, CHO cells in chamber slides were transfected using Lipofectamine and the indicated plasmids. 48 hours later, cells were fixed in formaldehyde and stained with an anti-FLAG epitope specific antibody (Kodak) and Fluorescein-Phalloidin (Molecular Probes). Anti-Flag stained cells were washed and stained with Cy3-conjugated sheep anti-mouse IgG. Stained cells were observed using Molecular Dynamics Confocal Microscope™ (2001) and analyzed with ImageSpace™ software (Molecular Dynamics).
# [1] = tested on: PSTPIP tyrosine phosphorylation; assay: Tyrosine phosphorylation of PSTPIP in COS cells co-transfected with V-src; format: cell-based; conditions: COS cells expressing PSTPIP and V-src
# Method: Baf3 cells were lysed in 1% Triton, 50 mM HEPES. 10% glycerol and 5 mM EDTA containing 1 μg/ml aprotinin, PMSF, leupeptin and pepstatin were 1 mM Sodium Vanadate and 10 mM Iodoacetic acid. Cells were treated with 0.1 mM Pervanadate for 4 hours before lysis. Immunoprecipitations were performed in the vanadate-containing lysis buffer using 1 μg/ml anti-PSTPIP polyclonal antibody and 400 μg of lysate protein at 4° C. overnight. Western blots were performed using 1 μg/ml affinity purified anti-PSTPIP or 1:5000 dilution of commercial 4G10 anti-phosphotyrosine monoclonal (Upstate Biotech). Signal was detected by HRPO-ECL reagents (Pierce). The C221-S mutant was as previously described (Cheng et al., (1996) supra). The PTP HSCF D197-A mutant was generated using PCR. Mutagenesis primer D197A.F ([…]) (SEQ ID NO:24), corresponding to nucleotide 591, and primer D197A.R ([…]) (SEQ ID NO:25) which corresponds to the stop codon, were used in PCR to generate a fragment that could be cut with Mscl and XbaI. pRK.HA.38 WT, a plasmid which encoded the wild type enzyme under the control of the cytomegalovirus promoter (Cheng et al., (1996) supra), was digested with Clal and Mscl and the resulting 600 bp fragment was ligated with the Mscl-Xbal PCR fragment into the Clal and Xbal sites of the pRK.tkneo. A plasmid encoding the V-src oncogene under the control of the SV40 early promoter was the kind gift of Dr. Art Levinson (CEO-Genetech, Inc.). NIH 3T3 cells and the COS-7 cells were cultured in high glucose DMEM supplemented with 10% FBS, 2 mM L-Glutamine, 10 mM HEPES pH 7.2 and pen-strep.
# COS-7 cells were transfected by electroporation. Briefly, 1.5×10^6 COS-7 cells were mixed with 24 μg total DNA in PBS and electroporated at 960 μF, […] (Bio-Rad™ Gene Pulsar™). Following electroporation, cells were seeded in 10 cm dishes and incubated for 3 days. 10-cm dishes of transfected COS cells were washed twice with ice-cold PBS, and lysed in 1 ml of M-RIPA (50 mM Tris 7.4, 1% NP40, 0.25% DOC, 150 mM NaCl, 1 mM sodium ortho-vanadate, 1 mM NaF plus Complete™ Protease Inhibitors (Boehringer Mannheim)). Lysates were incubated for 15 minutes with 100 μl UltraLink Immobilized Protein A/G™ (Pierce) at 4° C., followed by centrifugation for 5 minutes. Supernatants were collected and stored at −70° C. or directly immunoprecipitated. 5 μg of M2 or 12CA5 was added to 500 μl of lysate and incubated overnight at 4° C. Ultralink Protein A/G™ was added and incubation continued for 2 hours at 4° C. The immune complexes were washed 3 times with M-RIPA. The proteins were subjected to SDS-PAGE and transferred to nitrocellulose in 1X Transfer Buffer™ (Novex). Immunoblots were blocked overnight at 4° C. in 3% milk/PBS. To detect Flag-tagged PIP, blots were incubated with 10 μg/ml Bio-M2 (Biotinylated anti-FLAG monoclonal Ab, KODAK) followed by incubation in 10 μg/ml streptavidin-HRP (UBI). To detect HA-tagged PTPhscf, blots were incubated in anti-(HA)-peroxidase (Boehringer Mannheim) as per manufacturer's instructions. To detect phosphotyrosine, blots were incubated in HRP-conjugated 4G10 (anti-phosphotyrosine monoclonal, UBI) as per manufacture's instructions.
# COS cells were transfected with a constant amount of either the wild type of W232A mutant of PST PIP and cotransfected with increasing amounts of a plasmid encoding the v-Src tyrosine kinase (Spencer et al, (1997), supra). Plasmid concentrations were equalized with an empty vector containing the CMV promoter. After 48 hours, lysates were prepare and immunoprecipitated with anti-FLAG monoclonal antibody. Precipitates were run on SDS polyacrylamide gels, blotted, and probed with either anti-FLAG antibody or anti-phosphotyrosine antibody as previously described (Spencer et al, (1997), supra). Bound antibodies were visualized using enhanced chemiluminescent reagents.
Molecule,cellular localization of PST PIP forms (assay for correct folding) (CHO cells),level of tyrosine phosphate on PSTPIP on cotransfection of PTP HSCF forms [1]
delta 50: PST PIP missing the N-terminal 50 amino acids (protein) ERYGKELVQIARKAGGQTEMNSLRTSFDSLKQQTENVGSAHIQLALALREELRSLEEFRERQKEQRKKYEAIMDRVQKSKLSLYKKTMESKKAYDQKCRDADDAEQAFERVSANGHQKQVEKSQNKAKQCKESATEAERVYRQNIEQLERARTEWEQEHRTTCEAFQLQEFDRLTILRNALWVHCNQLSMQCVKDDELYEEVRLTLEGCDVEGDINGFIQSKSTGREPPAPVPYQNYYDREVTPLIGSPSIQPSCGVIKRFSGLLHGSPKTTPSAPAASTETLTPTPERNELVYASIEVQATQGNLNSSAQDYRALYDYTAQNSDELDISAGDILAVILEGEDGWWTVERNGQRGFVPGSYLEKLDYKDDDDK,formed large aggregates within the cytoplasm,
delta 75: PST PIP missing the N-terminal 75 amino acids (protein) SFDSLKQQTENVGSAHIQLALALREELRSLEEFRERQKEQRKKYEAIMDRVQKSKLSLYKKTMESKKAYDQKCRDADDAEQAFERVSANGHQKQVEKSQNKAKQCKESATEAERVYRQNIEQLERARTEWEQEHRTTCEAFQLQEFDRLTILRNALWVHCNQLSMQCVKDDELYEEVRLTLEGCDVEGDINGFIQSKSTGREPPAPVPYQNYYDREVTPLIGSPSIQPSCGVIKRFSGLLHGSPKTTPSAPAASTETLTPTPERNELVYASIEVQATQGNLNSSAQDYRALYDYTAQNSDELDISAGDILAVILEGEDGWWTVERNGQRGFVPGSYLEKLDYKDDDDK,formed large aggregates within the cytoplasm,
"D197-A: dominant negative PTP HSCF, active site aspartate mutated to alanine (protein, UniProt Q99952 1-460, looked up, variant D197A) Tyrosine-protein phosphatase …: MSRSLDSARSFLERLEARGGREGAVLAGEFSDIQACSAAWKADGVCSTVAGSRPENVRKNRYKDVLPYDQTRVILSLLQEEGHSDYINGNFIRGVDGSLAYIATQGPLPHTLLDFWRLVWEFGVKVILMACREIENGRKRCERYWAQEQEPLQTGLFCITLIKEKWLNEDIMLRTLKVTFQKESRSVYQLQYMSWPARGVPSSPDHMLAMVEEARRLQGSGPEPLCVHCSAGCGRTGVLCTVDYVRQLLLTQMIPPDFSLFDVVLKMRKQRPAAVQTEEQYRFLYHTVAQMFCSTLQNASPHYQNIKENCAPLYDDALFLRTPQALLAIPRPPGGVLRSISVPGSPGHAMADTYAVVQKRGAPAGAGSGTQTGTGTGTGARSAEEAPLYSKVTPRAQRPGAHAEDARGTLPGRVPADQSPAGSGAYEDVAGGAQTGGLGFNLRIGRPKGPRDPPAEWTRV",,slightly more efficient dominant negative protein
"wild type PTP HSCF: PEST-type protein tyrosine phosphatase PTP HSCF, wild type (protein, left off: small tags and cut ends) MSRHTDLVRSFLEQLEARDYREGAILAREFSDIKARSVAWKSEGVCSTKAGSRLGNTNKNRYKDVVAYDETRVILSLLQEEGHGDYINANFIRGIDGSQAYIATQGPLPHTLLDFWRLVWEFGVKVILMACQETENGRRKCERYWAREQEPLKAGPFCITLTKETTLNADITLRTLQVTFQKEFRSVHQLQYMSWPDHGVPSSSDHILTMVEEARCLQGLGPGPLCVHCSAGCGRTGVLCAVDYVRQLLLTQTIPPNFSLFQVVLEMRKQRPAAVQTEEQYRFLYHTVAQLFSRTLQDTSPHYQNLKENCAPICKEAFSLRTSSALPATSRPPGGVLRSISVPAPPTLPMADTYAVVQKRGASAGTGPGPRAPTSTDTPIYSQVAPRAQRPVAHTEDAQGTTALRRVPADQNSSGPDAYEEVTDGAQTGGLGFNLRIGRPKGPRDPPAEWTRV",,decreased level of tyrosine phosphate
